Usually Kd stands for the concentration at which binding is half-saturated. Read a low Kd as higher affinity.

The values below come from article PMC3018548 (Archives of biochemistry and biophysics, 2010).

The data set concerns the molecule itself. Kind of data set: protein concentration dependence of fluorimetric metal uptake kinetics.

B1: Escherichia coli apo-manganese superoxide dismutase (wt apo-MnSOD) (enzyme, UniProt P00448 1-206, looked up)
chain: MSYTLPSLPYAYDALEPHFDKQTMEIHHTKHHQTYVNNANAALESLPEFANLPVEELITKLDQLPADKKTVLRNNAGGHANHSLFWKGLKKGTTLQGDLKAAIERDFGSVDNFKAEFEKAAASRFGSGWAWLVLKGDKLAVVSTANQDSPLMGEAISGASGFPIMGLDVWEHAYYLKFQNRRPDYIKEFWNVVNWDEAAARFAAKK
B1 came in with a Kd of 6.6 ± 0.9 µM.
